Measurements: the supplement of paper PMC10567573
± gives the standard deviation.

Experiment: protein stability index of a GFP-peptide fusion (GPS, HEK-293T) (PSI 1-6); higher = more stable
[1] = treatment: DMSO, c terminus: a fixed tail appended
[2] = treatment: MLN4924 1 uM, 8 h, c terminus: a fixed tail appended
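Further: 24-mer peptide tiles fused after GFP, lentivirally expressed, FACS-sorted into six equal bins by GFP/DsRed ratio, decoded by Illumina sequencing, PSI is the read-weighted mean bin number.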

Row | Sequence | protein stability index [1] | protein stability index [2] | protein stability index (treatment: DMSO, c terminus: native) | protein stability index (treatment: MLN4924 1 uM, 8 h, c terminus: native)
1 | DDLTVVDAASLRRQIIKLNRRLQL [MFF] | 2.49 ± 0.27 | 2.9 ± 0.65 |  | 
2 | VADGLCCVLTTPCLTQSTAAPAVR [SLA] | 2.5 ± 0.54 | 2.77 ± 0.2 |  | 
3 | TLVNFHLKRSIPQVSPVRRAPSRR [CPN1] | 2.88 ± 0.28 | 3.13 ± 0.23 |  | 
4 | FTKANFWYQPSFHGVDLSALRGAA [CARM1] | 2.38 ± 0.83 | 1.92 ± 0.3 |  | 
5 | SIKKKFLKRKGKTDSPWIKPARKR [EHMT1] | 3.66 ± 0.082 | 3.71 ± 0.17 |  | 
6 | AKKFMWRDSFMRHRGHCERRHRLG [ZBTB22] | 2.94 ± 0.23 | 3.1 ± 0.41 |  | 
7 | DGKGKINKEYIKRLLMSQADKMTA [MYL5] | 2.97 ± 0.25 | 3.13 ± 0.33 |  | 
8 | DYWLRRFEAEPLPENTNRQLLLQF [PI4K2A] | 2.41 ± 0.21 | 2.35 ± 0.27 |  | 
9 | NNMNAVNLFFAWIKIFKYISFNKT [PKD2L1] | 2.81 ± 0.46 | 2.58 ± 0.54 |  | 
10 | ILGSGEEGPQVGPSAAQTLRSFCA [ADAMTS4] | 3.7 ± 0.5 | 3.95 ± 0.53 |  | 
11 | LPLLSPKFLVGTVGSDPLIKSDEE [KLHL20] | 4.33 ± 0.051 | 4.43 ± 0.073 |  | 
12 | INHLLKSPFSVHPKTGRISVPIDL [PRIM1] | 2.06 ± 0.21 | 2.48 ± 0.17 |  | 
13 | GHIILNSMHKYQPRLHIVKADENN [TBX5] | 2.82 ± 0.48 | 2.95 ± 0.018 |  | 
14 | AKVTGEVLDILTRLPESVERLTGV [FLOT1] | 2.98 ± 0.37 | 3.17 ± 0.34 |  | 
15 | ELFAWGRGDSGRLGLGTRESHSCP [NEK8] | 2.95 ± 0.26 | 3.27 ± 0.22 |  | 
16 | LEAHCVEFLTKHLRADNAFMLLTQ [BTBD1] | 2.55 ± 0.76 | 2.81 ± 0.47 |  | 
17 | EMREQYEAMAEKNRRDVEAWFFSK [KRT15] | 3.85 ± 0.13 | 3.88 ± 0.39 |  | 
18 | LEEQLQGWGEVMLMADKVLRWERA [ARL6IP1] | 2.49 ± 0.31 | 2.49 ± 0.27 |  | 
19 | NITVQKKVSQWWERLTKQEKRPLF [HACD3] | 2.65 ± 0.18 | 2.91 ± 0.13 |  | 
20 | DVTCNEFFFDRNPGAFGTILTFLR [KCNG1] | 2.59 ± 0.33 | 2.65 ± 0.12 |  | 
21 | EGAIAVHCKAGLGRTGTLIACYVM [CDC14A] | 3.02 ± 0.56 | 2.86 ± 0.51 |  | 
22 | CIQQILEAVLHCHQMGVVHRDLKP [CAMK2A] | 2.75 ± 0.32 | 3.03 ± 0.36 |  | 
23 | MGGTQQQFVEGVRMEEIVEGCTGA [CTNNB1] | 5.09 ± 0.15 | 5.1 ± 0.072 |  | 

Row | Sequence | protein stability index [1] | protein stability index [2] | protein stability index (treatment: DMSO, c terminus: native) | protein stability index (treatment: MLN4924 1 uM, 8 h, c terminus: native)
24 | KLSSFYSLKLIKRLYVDKSLNLST [SERPINB5] | 2.46 ± 0.42 | 2.18 ± 0.36 |  | 
25 | PAMAASKALGSDLDSSLASLVGNL [SNAP91] | 4.06 ± 0.34 | 3.95 ± 0.34 |  | 
26 | FGPDSKSSALACTLPTLPAKVYVG [NCF4] | 2.74 ± 0.12 | 3.03 ± 0.43 |  | 
27 | TLALEALVQLRGRLTSQDWERVHL [ALG2] | 2.24 ± 0.27 | 2.32 ± 0.24 |  | 
28 | DCLLCFPETLPESSLFSVEANSSN [C8orf76] | 3.58 ± 0.29 | 3.58 ± 0.6 |  | 
29 | EYMKNLLKVGGILVMPLEEKLTKI [PCMTD2] | 2.73 ± 0.36 | 2.13 ± 0.33 |  | 
30 | STLKTLLFFTALMITVPIGLYFTT [VMA21] | 2.45 ± 0.19 | 2.31 ± 0.19 |  | 
31 | SSECHTSGFVGSGGWFCEGSFNGS [KRT36] | 3.23 ± 0.17 | 3.06 ± 0.37 |  | 
32 | AAKQLEYQQLEDDKLSQKSSSSKL [EPB41L3] | 5 ± 0.64 | 4.92 ± 0.33 |  | 
33 | PPNGPNLPMATVDIKNPEITTNRF [WASL] | 4.48 ± 0.15 | 4.16 ± 0.29 |  | 
34 | LTVLPKLQARERGEEQVELSTIEE [C2CD2L] | 5.14 ± 0.17 | 4.96 ± 0.54 |  | 
35 | MIIVAISPKYKQDVEGAESQLDED [TRAF3IP2] | 2.52 ± 0.14 | 2.26 ± 0.25 |  | 
36 | MEQPTSSTNGEKTKSPCESNNKKN [SPANXN3] | 5.32 ± 0.33 | 4.92 ± 0.85 |  | 
37 | DDRNTACHHGLVADSLQASMEKDA [DLC1] | 5.15 ± 0.13 | 5.16 ± 0.16 |  | 
38 | CSMSATFTLNFFRSGIQFGSWGSF [CLCN6] | 3.01 ± 0.57 | 2.75 ± 0.14 |  | 
39 | EACGRCEEVPEAYVDIHTGLSGSG [PYCR3] | 4.29 ± 0.67 | 4.57 ± 0.11 |  | 
40 | EFSLVNVNLQRFGMNGQMLCNLGK [ETS2] | 2.32 ± 0.4 | 2.58 ± 0.16 |  | 
41 | PSFLSQTGHGVSRGPSPVVLGSQD [FCHO1] | 4.33 ± 0.3 | 4.3 ± 0.32 |  | 
42 | FRLLNLKNDSLRKRYDGLKYDVKK [TSN] | 2.85 ± 0.21 | 2.94 ± 0.32 |  | 
43 | SIYPMEVLKTRMALRKTGQYSGML [SLC25A25] | 2.48 ± 0.36 | 2.6 ± 0.52 |  | 
44 | DHEDNDKMNDSEGMDPERLKAFNM [NOL4L] | 5.46 ± 0.12 | 5.34 ± 0.34 |  | 
45 | TGVYPRCLHASQWPVCAACPVRKF [BRF1] | 2.49 ± 0.17 | 2.45 ± 0.24 |  | 
46 | LVRDWSFPYEYSYGLQGGMAFLDK [ATL3] | 1.96 ± 0.23 | 2.19 ± 0.38 |  | 

Row | Sequence | protein stability index [1] | protein stability index [2] | protein stability index (treatment: DMSO, c terminus: native) | protein stability index (treatment: MLN4924 1 uM, 8 h, c terminus: native)
47 | PVYLLLELEDKDGLQSAQPTEGQG [MYBL2] | 3.88 ± 0.23 | 3.79 ± 0.058 |  | 
48 | EEFIATIRAAKGLDQALKEGGKLP [ZC2HC1A] | 3.98 ± 0.22 | 3.93 ± 0.16 |  | 
49 | DSKSLKTHQTQPGIRRARDKALSG [NET1] | 4.63 ± 0.16 | 4.7 ± 0.18 |  | 
50 | YLIRVDGKGSIKELFPTGKQLEPL [VPS39] | 2.49 ± 0.23 | 2.21 ± 0.23 |  | 
51 | RHCDDDGRTENGALAPKQELPSAL [ZNF24] | 5.25 ± 0.22 | 5.15 ± 0.21 |  | 
52 | RSRDSNSGPEEPLLEEEEKQWGPL [RTN2] | 5.05 ± 0.53 | 5.45 ± 0.53 |  | 
53 | QMTPTNLAVCLAPSLFHLNTLKRE [DLC1] | 2.79 ± 0.044 | 2.53 ± 0.036 |  | 
54 | HTDIKPENILMCVDDAYVRRMAAE [SRPK2] | 4 ± 0.22 | 4.07 ± 0.27 |  | 
55 | VSNDSHTWVTVKNGSGDMIFEGNS [CPXM2] | 3.79 ± 0.16 | 4.32 ± 0.3 |  | 
56 | HQGHSDQHHHHHHHHHGRDFLLRA [RHOBTB2] | 3.45 ± 0.11 | 3.65 ± 0.24 |  | 
57 | WFSCQGPFDMDSCLSRHSINPYSN [DFFB] | 2.35 ± 0.24 | 2.2 ± 0.27 |  | 
58 | EIPKQVKVKKLKNLKTLDSKPGVY [DENND6A] | 3.4 ± 0.34 | 3.31 ± 0.52 |  | 
59 | QYVTFLRSFSDKQKISLLHSCTCV [ALG2] | 3.1 ± 0.51 | 2.69 ± 0.48 |  | 
60 | VFGRLRDENGRPYSPSQYALQYAG [NFE2L1] | 2.86 ± 0.45 | 2.65 ± 0.36 |  | 
61 | VQIKTWFQNRRMKHKRQMQDPQLH [VENTX] | 2.55 ± 0.4 | 2.52 ± 0.34 |  | 
62 | PSDAPHAHHPLHPHLMQEHMGTNV [HNF4A] | 4.45 ± 0.24 | 4.5 ± 0.1 |  | 
63 | WSIVGMAVVKGIQSSGKVMYFSSL [SLC6A17] | 2.94 ± 0.68 | 2.6 ± 0.78 |  | 
64 | KLRGPEPAATEAYGSGDTPGGPCD [TBX6] | 5.35 ± 0.21 | 5.28 ± 0.31 |  | 
65 | EHDAWFIFFMAAFAFSNGYLASLC [SLC29A1] | 3.19 ± 0.5 | 3.25 ± 0.48 |  | 
66 | VLVILISIVIFCLETLPEFRDEKD [KCNA3] | 2.54 ± 0.81 | 2.25 ± 0.88 |  | 
67 | SLRLCDMRAAALCDKHSKLFEEPE [PPP2R2C] | 4.19 ± 0.26 | 4.08 ± 0.26 |  | 
68 | LLDLQPDFSSGGAAAAAAPAPPPP [SNAP91] | 4.68 ± 0.23 | 4.77 ± 0.22 |  | 
69 | YVHWPYCEKRCSYCNFNKYIPRRL [RSAD1] | 2.62 ± 0.51 | 2.45 ± 0.34 |  | 

Row | Sequence | protein stability index [1] | protein stability index [2] | protein stability index (treatment: DMSO, c terminus: native) | protein stability index (treatment: MLN4924 1 uM, 8 h, c terminus: native)
70 | PNPSKVLQQLLVLQPEQQLNIYKT [CDS1] | 2.38 ± 0.33 | 2.44 ± 0.3 |  | 
71 | GEFPSPVSISIISSTSGGSGYGFR [KRT71] | 2.65 ± 0.34 | 3.04 ± 0.64 |  | 
72 | SGLVRRLWRSRVVPDREEGGSGGG [SMAD6] | 3.91 ± 0.6 | 4.33 ± 0.36 |  | 
73 | HGCEYSCVNMDRSFACQCPEGHVL [MATN2] | 3.57 ± 0.29 | 3.61 ± 0.26 |  | 
74 | IVTKFYQLSATGQKLYVRLFQRKL [FAN1] | 3.6 ± 0.98 | 2.57 ± 0.51 |  | 
75 | LLSGAFKKRRLPPVHIHPAFARQA [FOXJ1] | 2.21 ± 0.1 | 2.54 ± 0.36 |  | 
76 | LNVGNERYVFEAVIRWIAHDTEIR [GAN] | 2.53 ± 0.57 | 2.61 ± 0.56 |  | 
77 | FDDGDDIMATLGFGDSPKAEKRQI [FBF1] | 3.97 ± 0.24 | 4.32 ± 0.19 |  | 
78 | MAAGGSGVGGKRSSKSDADSGFLG [NOP53] | 3.57 ± 0.22 | 3.96 ± 0.12 |  | 
79 | EGGKLPPPPPPSYDPDYIQCPYCQ [ZC2HC1A] | 4.03 ± 0.3 | 4.45 ± 0.27 |  | 
80 | GAFLRTCLLSSNSRSLLTGGYNLA [TLE6] | 2.72 ± 0.32 | 2.79 ± 1.1 |  | 
81 | ITSETTSTTTTTHITKTVKGGISE [EPB41L3] | 5.06 ± 0.22 | 4.69 ± 0.79 |  | 
82 | YMVQDQHECILPFVQVKGNFARLQ [M1AP] | 2.56 ± 0.37 | 2.55 ± 0.42 |  | 
83 | QAAPGALPVSSPEPPPALPPAADA [TRIM55] | 5.46 ± 0.15 | 5.37 ± 0.28 |  | 
84 | LRALGAQIEKTTNREACRDLSGRR [SDE2] | 4.21 ± 0.15 | 4.48 ± 0.26 |  | 
85 | ALVDGQIFCLHGGLSPSIDTLDHI [PPP2CA] | 1.9 ± 0.19 | 2.19 ± 0.38 |  | 
86 | PQAHQESTRGAARPAQAIGTQPRA [SPACA9] | 5.08 ± 0.23 | 5.35 ± 0.18 |  | 
87 | QEPPTTDSQEAQSPGHSSAGQEGE [TOR1AIP2] | 5.67 ± 0.25 | 5.56 ± 0.26 |  | 
88 | TSSASVTTTSNASGRRTSDVRRP [KRT13] |  |  | 2.88 ± 0.77 | 3.58 ± 0.76
89 | VGEVLKDIETACKLLNITADPMDW [SPDEF] | 2.71 ± 0.17 | 2.51 ± 0.27 |  | 
